Laboratory results as given in article PMC6805484, “The RNA-binding ubiquitin ligase MKRN1 functions in ribosome-associated quality control of poly(A) translation” (Genome Biology, 2019).

Molecular target: T1, recombinant His-PABPC1 (human, UniProt P11940 1-636)
T1 construct: hsPABPC1 expressed from pET53-DEST; also called N-His6-tagged hsPABPC1; source: E. coli Rosetta 2(DE3) pLysS, purified (HisTrap FF, HiTrap Heparin HP, Superdex 200); not shown: His6, N-terminal, kept
Experiment: pull-down; biotinylated 42-nt RNA (22 nt of the SRSF4 3′ UTR followed by A20, or by 20 V as control) on NeutrAvidin agarose beads, incubated with 2 μg His-MKRN1-WT and/or His-PABPC1, 1 h at 4 °C, 50 mM Tris-HCl pH 7.4, 500 mM KCl, 12.5 mM MgCl2, 1% Triton X-100; SDS-PAGE with Coomassie staining
Details: both partners purified

T1 sequence (P11940 whole entry): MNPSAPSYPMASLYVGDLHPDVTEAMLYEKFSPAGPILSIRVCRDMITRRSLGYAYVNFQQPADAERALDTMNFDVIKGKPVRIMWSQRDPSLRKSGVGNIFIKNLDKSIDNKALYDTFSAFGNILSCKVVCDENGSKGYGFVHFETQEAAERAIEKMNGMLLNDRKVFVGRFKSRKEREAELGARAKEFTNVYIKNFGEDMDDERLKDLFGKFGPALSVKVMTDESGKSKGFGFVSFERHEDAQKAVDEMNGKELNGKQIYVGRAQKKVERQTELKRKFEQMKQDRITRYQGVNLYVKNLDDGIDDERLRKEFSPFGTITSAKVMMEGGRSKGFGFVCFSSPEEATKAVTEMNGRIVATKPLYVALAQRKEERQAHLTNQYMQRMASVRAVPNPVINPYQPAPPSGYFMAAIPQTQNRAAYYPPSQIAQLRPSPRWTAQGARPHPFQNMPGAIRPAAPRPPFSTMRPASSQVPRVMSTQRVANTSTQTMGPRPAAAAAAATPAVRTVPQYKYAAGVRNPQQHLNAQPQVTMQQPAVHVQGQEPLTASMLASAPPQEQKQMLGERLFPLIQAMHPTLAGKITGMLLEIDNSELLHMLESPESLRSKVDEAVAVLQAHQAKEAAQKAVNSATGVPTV

binding result: binds
B1: recombinant His-MKRN1^wt (natural protein, human, UniProt Q9UHC7 1-482, looked up)
chain: MAEAATPGTTATTSGAGAAAATAAAASPTPIPTVTAPSLGAGGGGGGSDGSGGGWTKQVTCRYFMHGVCKEGDNCRYSHDLSDSPYSVVCKYFQRGYCIYGDRCRYEHSKPLKQEEATATELTTKSSLAASSSLSSIVGPLVEMNTGEAESRNSNFATVGAGSEDWVNAIEFVPGQPYCGRTAPSCTEAPLQGSVTKEESEKEQTAVETKKQLCPYAAVGECRYGENCVYLHGDSCDMCGLQVLHPMDAAQRSQHIKSCIEAHEKDMELSFAVQRSKDMVCGICMEVVYEKANPSERRFGILSNCNHTYCLKCIRKWRSAKQFESKIIKSCPECRITSNFVIPSEYWVEEKEEKQKLILKYKEAMSNKACRYFDEGRGSCPFGGNCFYKHAYPDGRREEPQRQKVGTSSRYRAQRRNHFWELIEERENSNPFDNDEEEVVTFELGEMLLMLLAAGGDDELTDSEDEWDLFHDELEDFYDLDL
notes: hsMKRN1 expressed from pET53-DEST; also called N-His6-tagged hsMKRN1; source: E. coli Rosetta 2(DE3) pLysS, purified (HisTrap FF, HiTrap Q HP, Superdex 200); not shown: His6, N-terminal, kept
